{"source": "the supplement of paper PMC9112550", "about": "“Optimization of the antimicrobial peptide Bac7 by deep mutational scanning” (BMC Biology, 2022);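 further: peptides expressed intracellularly from a pBAD plasmid library in pooled LB shake-flask culture, induced with 0.3% L-arabinose, DNA abundance read by NGS, three biological replicates, DESeq2 with apeglm shrinkage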"}
{"tested_on": "Escherichia coli TOP10", "assay": "shrunken log2 fold change of peptide-encoding DNA abundance (4.5 h post-induction vs induction); higher = less antimicrobial activity (less host growth inhibition)", "conditions": "time post-induction: 4.5 h; library: site-saturation at positions 5, 18, 19, 20"}
{"sequence": "RRIRQRPPRLPRPRPRPAIGPRP", "shrunken log2 fold change": 0.216}
{"sequence": "RRIRNRPPRLPRPRPRPPHMPRP", "shrunken log2 fold change": -0.217}
{"sequence": "RRIRIRPPRLPRPRPRPFWYPRP", "shrunken log2 fold change": 0.00745}
{"sequence": "RRIRRRPPRLPRPRPRPFKYPRP", "shrunken log2 fold change": -0.252}
{"sequence": "RRIRFRPPRLPRPRPRPTSWPRP", "shrunken log2 fold change": 0.3}
{"sequence": "RRIRMRPPRLPRPRPRPTYHPRP", "shrunken log2 fold change": -0.242}
{"sequence": "RRIRRRPPRLPRPRPRPWYKPRP", "shrunken log2 fold change": -0.371}
{"sequence": "RRIRGRPPRLPRPRPRPAFNPRP", "shrunken log2 fold change": 0.2}
{"sequence": "RRIRWRPPRLPRPRPRPPWAPRP", "shrunken log2 fold change": 0.452}
{"sequence": "RRIRMRPPRLPRPRPRPGMYPRP", "shrunken log2 fold change": 0.124}
{"sequence": "RRIRTRPPRLPRPRPRPKMHPRP", "shrunken log2 fold change": -0.0762}
{"sequence": "RRIRGRPPRLPRPRPRPVYFPRP", "shrunken log2 fold change": -0.0244}
{"sequence": "RRIRHRPPRLPRPRPRPYHPPRP", "shrunken log2 fold change": -0.00776}
{"sequence": "RRIRERPPRLPRPRPRPKPGPRP", "shrunken log2 fold change": 0.469}
{"sequence": "RRIRLRPPRLPRPRPRPHGDPRP", "shrunken log2 fold change": -0.0331}
{"sequence": "RRIRLRPPRLPRPRPRPNDYPRP", "shrunken log2 fold change": -0.582}
{"sequence": "RRIRNRPPRLPRPRPRPEEDPRP", "shrunken log2 fold change": 0.659}
{"sequence": "RRIRGRPPRLPRPRPRPDKIPRP", "shrunken log2 fold change": 0.813}
{"sequence": "RRIRVRPPRLPRPRPRPANKPRP", "shrunken log2 fold change": -0.36}
{"sequence": "RRIRMRPPRLPRPRPRPYAPPRP", "shrunken log2 fold change": -0.24}
{"sequence": "RRIRHRPPRLPRPRPRPCNFPRP", "shrunken log2 fold change": -0.74}
{"sequence": "RRIRHRPPRLPRPRPRPPRWPRP", "shrunken log2 fold change": 0.137}
{"sequence": "RRIRERPPRLPRPRPRPCLWPRP", "shrunken log2 fold change": -0.0179}
{"sequence": "RRIRCRPPRLPRPRPRPFVMPRP", "shrunken log2 fold change": -0.153}
{"sequence": "RRIRPRPPRLPRPRPRPYHIPRP", "shrunken log2 fold change": -0.672}
{"sequence": "RRIRGRPPRLPRPRPRPPPRPRP", "shrunken log2 fold change": 1.69}
{"sequence": "RRIRCRPPRLPRPRPRPLDKPRP", "shrunken log2 fold change": -0.328}
{"sequence": "RRIRPRPPRLPRPRPRPCARPRP", "shrunken log2 fold change": 0.0698}
{"sequence": "RRIRMRPPRLPRPRPRPTYIPRP", "shrunken log2 fold change": -1.08}
{"sequence": "RRIRIRPPRLPRPRPRPWRCPRP", "shrunken log2 fold change": -0.107}
{"sequence": "RRIRARPPRLPRPRPRPTIPPRP", "shrunken log2 fold change": 0.132}
{"sequence": "RRIRVRPPRLPRPRPRPYRVPRP", "shrunken log2 fold change": -0.0295}
{"sequence": "RRIRNRPPRLPRPRPRPAITPRP", "shrunken log2 fold change": 0.134}
{"sequence": "RRIRNRPPRLPRPRPRPWSMPRP", "shrunken log2 fold change": -0.0638}
{"sequence": "RRIRNRPPRLPRPRPRPAWWPRP", "shrunken log2 fold change": 0.293}
{"sequence": "RRIRRRPPRLPRPRPRPAVGPRP", "shrunken log2 fold change": 0.344}
{"sequence": "RRIRPRPPRLPRPRPRPYLMPRP", "shrunken log2 fold change": -0.58}
{"sequence": "RRIRRRPPRLPRPRPRPWDGPRP", "shrunken log2 fold change": 0.399}
{"sequence": "RRIRWRPPRLPRPRPRPFTVPRP", "shrunken log2 fold change": -0.512}
{"sequence": "RRIRTRPPRLPRPRPRPNYVPRP", "shrunken log2 fold change": -0.35}
{"sequence": "RRIRMRPPRLPRPRPRPHSCPRP", "shrunken log2 fold change": 0.0321}
{"sequence": "RRIRKRPPRLPRPRPRPPRQPRP", "shrunken log2 fold change": 0.82}
{"sequence": "RRIRPRPPRLPRPRPRPDVQPRP", "shrunken log2 fold change": 0.234}
{"sequence": "RRIRLRPPRLPRPRPRPDRFPRP", "shrunken log2 fold change": -0.00452}
{"sequence": "RRIRRRPPRLPRPRPRPIPSPRP", "shrunken log2 fold change": 0.247}
{"sequence": "RRIRQRPPRLPRPRPRPSPFPRP", "shrunken log2 fold change": 0.0122}
{"sequence": "RRIRDRPPRLPRPRPRPDGGPRP", "shrunken log2 fold change": -0.00182}
{"sequence": "RRIRDRPPRLPRPRPRPRIHPRP", "shrunken log2 fold change": -0.563}
{"sequence": "RRIRGRPPRLPRPRPRPKYMPRP", "shrunken log2 fold change": 0.104}
{"sequence": "RRIRIRPPRLPRPRPRPTVGPRP", "shrunken log2 fold change": 0.152}
{"sequence": "RRIRARPPRLPRPRPRPCCNPRP", "shrunken log2 fold change": 0.278}
{"sequence": "RRIRHRPPRLPRPRPRPNGCPRP", "shrunken log2 fold change": -0.0302}
{"sequence": "RRIRARPPRLPRPRPRPVDMPRP", "shrunken log2 fold change": -0.109}
{"sequence": "RRIRIRPPRLPRPRPRPAAYPRP", "shrunken log2 fold change": -0.919}
{"sequence": "RRIRMRPPRLPRPRPRPPMVPRP", "shrunken log2 fold change": 0.188}
{"sequence": "RRIRVRPPRLPRPRPRPCDHPRP", "shrunken log2 fold change": -0.338}
{"sequence": "RRIRYRPPRLPRPRPRPAVHPRP", "shrunken log2 fold change": -0.0328}
{"sequence": "RRIRCRPPRLPRPRPRPRADPRP", "shrunken log2 fold change": 0.454}
{"sequence": "RRIRKRPPRLPRPRPRPSMRPRP", "shrunken log2 fold change": 0.915}
{"sequence": "RRIRHRPPRLPRPRPRPRIKPRP", "shrunken log2 fold change": -0.0701}
